Numbering of substitutions follows the chain as printed.
B1: LC-G049C (antibody, V domains shown)
VH: EVQLQQSGPELVKPGASVKISCKTSGYTFTEYTMHWMKQSHRKSLEWIGGINTNNGGTGYNQKFKGKATLTVDKSSSTAYMELRSLTSEDSAVYFCARGSLYSYGNSYFDYWGQGTLVTVSS
VL: QIVLTQSPAIMSASPGEKVTITCSATSSVSYMHWFQQKPGTSPKLWIYCTSNLASGVPARFSGSGSGTSYSLTISRMEAEDAATYYCQQRSSYPFTFGQGTKVEIK
notes: CPE single point mutant of parent VL 48.6-LC-WT
B2: LC-S092D (antibody, V domains shown)
VH: B1 VH
VL: B1 VL with C49G, S92D
notes: as for B1
B3: LC-G049P (antibody, V domains shown)
VH: B1 VH
VL: B1 VL with C49P
notes: as for B1
B4: LC-Q089E (antibody, V domains shown)
VH: B1 VH
VL: B1 VL with C49G, Q89E
notes: as for B1
B5: LC-G049H (antibody, V domains shown)
VH: B1 VH
VL: B1 VL with C49H
notes: as for B1
B6: LC-H033G (antibody, V domains shown)
VH: B1 VH
VL: B1 VL with H33G, C49G
notes: as for B1
B7: LC-H033L (antibody, V domains shown)
VH: B1 VH
VL: B1 VL with H33L, C49G
notes: as for B1
B8: LC-F097E (antibody, V domains shown)
VH: B1 VH
VL: B1 VL with C49G, F97E
notes: as for B1
B9: LC-S030D (antibody, V domains shown)
VH: B1 VH
VL: B1 VL with S30D, C49G
notes: as for B1
B10: LC-S092V (antibody, V domains shown)
VH: B1 VH
VL: B1 VL with C49G, S92V
notes: as for B1
B11: LC-R090H (antibody, V domains shown)
VH: B1 VH
VL: B1 VL with C49G, R90H
notes: as for B1
B12: HC-A097I (antibody, V domains shown)
VH: B1 VH with A97I
VL: B1 VL with C49G
notes: CPE single point mutant of parent VH 48.6-HC-WT
B13: HC-N052L (antibody, V domains shown)
VH: B1 VH with N52L
VL: B1 VL with C49G
notes: as for B12
B14: HC-W112L (antibody, V domains shown)
VH: B1 VH with W112L
VL: B1 VL with C49G
notes: as for B12
B15: HC-T053D (antibody, V domains shown)
VH: B1 VH with T53D
VL: B1 VL with C49G
notes: as for B12
B16: HC-I051E (antibody, V domains shown)
VH: B1 VH with I51E
VL: B1 VL with C49G
notes: as for B12
B17: HC-S103G (antibody, V domains shown)
VH: B1 VH with S103G
VL: B1 VL with C49G
notes: as for B12
B18: HC-A097M (antibody, V domains shown)
VH: B1 VH with A97M
VL: B1 VL with C49G
notes: as for B12
B19: HC-F029E (antibody, V domains shown)
VH: B1 VH with F29E
VL: B1 VL with C49G
notes: as for B12
B20: HC-M034D (antibody, V domains shown)
VH: B1 VH with M34D
VL: B1 VL with C49G
notes: as for B12
B21: HC-D110L (antibody, V domains shown)
VH: B1 VH with D110L
VL: B1 VL with C49G
notes: as for B12
B22: HC-M034Y (antibody, V domains shown)
VH: B1 VH with M34Y
VL: B1 VL with C49G
notes: as for B12
B23: HC-G105D (antibody, V domains shown)
VH: B1 VH with G105D
VL: B1 VL with C49G
notes: as for B12
B24: HC-N052C (antibody, V domains shown)
VH: B1 VH with N52C
VL: B1 VL with C49G
notes: as for B12
B25: HC-N052V (antibody, V domains shown)
VH: B1 VH with N52V
VL: B1 VL with C49G
notes: as for B12
B26: HC-A097T (antibody, V domains shown)
VH: B1 VH with A97T
VL: B1 VL with C49G
notes: as for B12
B27: HC-R098Q (antibody, V domains shown)
VH: B1 VH with R98Q
VL: B1 VL with C49G
notes: as for B12
B28: HC-T053E (antibody, V domains shown)
VH: B1 VH with T53E
VL: B1 VL with C49G
notes: as for B12
B29: HC-T033C (antibody, V domains shown)
VH: B1 VH with T33C
VL: B1 VL with C49G
notes: as for B12
B30: HC-Y111T (antibody, V domains shown)
VH: B1 VH with Y111T
VL: B1 VL with C49G
notes: as for B12
B31: HC-Y111C (antibody, V domains shown)
VH: B1 VH with Y111C
VL: B1 VL with C49G
notes: as for B12
B32: HC-L101F (antibody, V domains shown)
VH: B1 VH with L101F
VL: B1 VL with C49G
notes: as for B12
B33: HC-A097S (antibody, V domains shown)
VH: B1 VH with A97S
VL: B1 VL with C49G
notes: as for B12
B34: HC-Y032D (antibody, V domains shown)
VH: B1 VH with Y32D
VL: B1 VL with C49G
notes: as for B12
B35: HC-M034E (antibody, V domains shown)
VH: B1 VH with M34E
VL: B1 VL with C49G
notes: as for B12
B36: HC-G099E (antibody, V domains shown)
VH: B1 VH with G99E
VL: B1 VL with C49G
notes: as for B12
B37: HC-R098H (antibody, V domains shown)
VH: B1 VH with R98H
VL: B1 VL with C49G
notes: as for B12
B38: HC-G050S (antibody, V domains shown)
VH: B1 VH with G50S
VL: B1 VL with C49G
notes: as for B12

These binders were tested against T1, human ROR2 (receptor tyrosine kinase-like orphan receptor 2) (human, UniProt Q01974 34-403, limits assumed) (assay: affinity ELISA on human ROR2, pH 7.4).
T1 construct: Antigen of the ELISA, SPR and pH titration assays; also called hROR2
T1 sequence (Q01974 34-403 limits assumed): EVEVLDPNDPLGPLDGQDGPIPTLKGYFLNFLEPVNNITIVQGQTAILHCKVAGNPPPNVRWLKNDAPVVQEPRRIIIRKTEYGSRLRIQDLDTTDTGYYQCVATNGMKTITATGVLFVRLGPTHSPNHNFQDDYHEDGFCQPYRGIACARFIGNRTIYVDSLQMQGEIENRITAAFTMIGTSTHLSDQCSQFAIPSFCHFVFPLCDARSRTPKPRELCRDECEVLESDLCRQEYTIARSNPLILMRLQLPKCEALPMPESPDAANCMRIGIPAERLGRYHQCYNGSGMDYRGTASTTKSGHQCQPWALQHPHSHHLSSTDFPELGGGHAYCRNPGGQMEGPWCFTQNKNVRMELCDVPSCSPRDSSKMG
Design: unit not given here

Going from B1 to B2, the “Affinity ELISA, pH 7.4” value rises from 0.133 to 1.12.

Going from B3 to B4, the “Affinity ELISA, pH 7.4” value falls from 0.268 to 0.251.

Going from B5 to B6, the “Affinity ELISA, pH 7.4” value rises from 0.118 to 0.536.

Compared with B7, B8 is lower in “Affinity ELISA, pH 7.4” value: 0.332 for the first, 0.215 for the second.

Compared with B9, B10 is higher in “Affinity ELISA, pH 7.4” value: 0.252 for the first, 1.18 for the second.

With B11 the “Affinity ELISA, pH 7.4” value was 0.256.

Each binder was assayed against T1, human ROR2 (receptor tyrosine …) (assay: affinity ELISA on human ROR2, pH 6.0).
Design: unit not given here

Compared with B1, B2 is higher in “Affinity ELISA, pH 6.0” value: 0.468 for the first, 1.13 for the second.

First: B3
Second: B4
The “Affinity ELISA, pH 6.0” value of the first is higher: 0.66 for the first, 0.438 for the second.

First: B5
Second: B6
The “Affinity ELISA, pH 6.0” value of the first is higher: 1.87 for the first, 1.1 for the second.

First: B7
Second: B8
The “Affinity ELISA, pH 6.0” value of the first is higher: 0.69 for the first, 0.489 for the second.

First: B9
Second: B10
The “Affinity ELISA, pH 6.0” value of the first is lower: 0.733 for the first, 1.23 for the second.

With B11 the “Affinity ELISA, pH 6.0” value was 0.56.

Biological target: T1, human ROR2 (receptor tyrosine …)
Assay: affinity ELISA on human ROR2, pH 7.4
Design: unit not given here
Remark: another data set of the same source

First: B12
Second: B13
The “Affinity ELISA, pH 7.4” value of the first is higher: 1.73 for the first, 0.433 for the second.

First: B14
Second: B15
The “Affinity ELISA, pH 7.4” value of the first is higher: 1.7 for the first, 0.222 for the second.

Going from B16 to B17, the “Affinity ELISA, pH 7.4” value rises from 0.1 to 0.655.

Going from B18 to B19, the “Affinity ELISA, pH 7.4” value falls from 1.7 to 0.742.

Compared with B20, B21 is higher in “Affinity ELISA, pH 7.4” value: 0.211 for the first, 1.4 for the second.

Going from B22 to B23, the “Affinity ELISA, pH 7.4” value falls from 0.391 to 0.379.

First: B24
Second: B25
The “Affinity ELISA, pH 7.4” value of the first is higher: 0.431 for the first, 0.34 for the second.

Compared with B26, B27 is lower in “Affinity ELISA, pH 7.4” value: 1.69 for the first, 0.276 for the second.

Compared with B28, B29 is higher in “Affinity ELISA, pH 7.4” value: 0.157 for the first, 0.232 for the second.

Going from B30 to B31, the “Affinity ELISA, pH 7.4” value falls from 1.4 to 0.793.

First: B32
Second: B33
The “Affinity ELISA, pH 7.4” value of the first is lower: 1.41 for the first, 1.69 for the second.

Going from B34 to B35, the “Affinity ELISA, pH 7.4” value falls from 0.51 to 0.185.

Compared with B36, B37 is lower in “Affinity ELISA, pH 7.4” value: 0.421 for the first, 0.353 for the second.

B38 was tested, and the “Affinity ELISA, pH 7.4” value was 0.318.

Biological target: T1, human ROR2 (receptor tyrosine …)
Assay: affinity ELISA on human ROR2, pH 6.0
Design: unit not given here
Remark: another data set of the same source

Compared with B12, B13 is lower in “Affinity ELISA, pH 6.0” value: 1.89 for the first, 0.911 for the second.

Compared with B14, B15 is lower in “Affinity ELISA, pH 6.0” value: 1.75 for the first, 1.11 for the second.

Going from B16 to B17, the “Affinity ELISA, pH 6.0” value falls from 1.04 to 0.794.

Compared with B18, B19 is lower in “Affinity ELISA, pH 6.0” value: 1.98 for the first, 1.34 for the second.

Compared with B20, B21 is higher in “Affinity ELISA, pH 6.0” value: 1.24 for the first, 1.68 for the second.

First: B22
Second: B23
The “Affinity ELISA, pH 6.0” value of the first is higher: 0.903 for the first, 0.509 for the second.

Compared with B24, B25 is lower in “Affinity ELISA, pH 6.0” value: 0.995 for the first, 0.87 for the second.

Going from B26 to B27, the “Affinity ELISA, pH 6.0” value falls from 1.83 to 0.799.

Going from B28 to B29, the “Affinity ELISA, pH 6.0” value rises from 0.54 to 0.626.

First: B30
Second: B31
The “Affinity ELISA, pH 6.0” value of the first is higher: 1.86 for the first, 1.08 for the second.

Compared with B32, B33 is higher in “Affinity ELISA, pH 6.0” value: 1.46 for the first, 1.67 for the second.

Going from B34 to B35, the “Affinity ELISA, pH 6.0” value falls from 1.47 to 1.17.

Going from B36 to B37, the “Affinity ELISA, pH 6.0” value rises from 0.616 to 0.928.

B38 was tested, and the “Affinity ELISA, pH 6.0” value was 0.828.

— patent US20250161472A1 (BIOATLA, published 2025)
